Results on three molecules are retold here after publication PMC4579036.

Where two headings read alike, the source gives them in different places.

What all share (assay): competition
The target in data set [1] is T1, Fis (Escherichia coli, UniProt P0A6R3 1-98).
Data set [2] concerns the target T1, Fis. The source holds these as a separate data set.
Data set [3] concerns the target T1, Fis. This is another data set of the same source.

T1 sequence (P0A6R3 whole entry): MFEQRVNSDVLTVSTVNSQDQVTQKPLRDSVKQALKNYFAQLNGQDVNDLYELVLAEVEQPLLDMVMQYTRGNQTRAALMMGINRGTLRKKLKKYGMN

B1: F1 (dsDNA)
DNA 1: AAATTTGTTTGAATTTTGAGCAAATTT
DNA 2: AAATTTGCTCAAAATTCAAACAAATTT
Take B1: the binding result in data set [1] is “binds”.

B2: F28 (dsDNA)
DNA 1: AAATTTGTTTGAGCGTTGAGCAAATTT
DNA 2: AAATTTGCTCAACGCTCAAACAAATTT
Consider B2, for which the binding result in data set [2] is given as “binds”.

B3: F29 (dsDNA)
DNA 1: AAATTTGTTTGGGCGCTGAGCAAATTT
DNA 2: AAATTTGCTCAGCGCCCAAACAAATTT
B3: the binding result in data set [3] was “binds”.
